The text below walks through data of article PMC8611336.

Test [1] addresses SUVs of PM lipid composition. Nature of the test: microscale thermophoresis (MST). Particulars: value read at the highest lipid concentration, about 1600 µM; n = 3; parent: est. 105; read off a plot.
Test [2] concerns the target SUVs of NE lipid composition. Nature of the test: microscale thermophoresis (MST). To be noted: value read at the highest lipid concentration, about 1600 µM; n = 3; parent: est. 88; read off a plot.

For “AαH peptide (Apq12 58-68, …) L58D; F61R; I62N; F68N”, the response worked out at 35% in test [1] and 50% in test [2].
